Results on one molecule are retold here after US20100330078A1 (Pfizer, published 2010).

Assay [1] has as its target T1, human integrin α5β1 on cells (endogenous, HUVEC; tumor or endothelial-expressed) (human, UniProt P08648 42-1049; P05556 21-798). Put plainly: cell-based or functional assay.
Assay [2] deals with T1, human integrin α5β1 on cells …. Put plainly: FACS on HUVEC (endogenous human α5β1), GeoMean against mAb concentration, fitted; experiment 031307. As to the method:
(§1) The 22B5/DLE, 24C7/DLE, 1 D9/DLE, and 2D2/DLE antibodies were tested for their binding affinity to cell surface integrin α5 using a FACS assay, employing endogenous human integrin α5β1 expressing cells (HUVEC). Briefly, the cells were detached using trypsin-EDTA and washed with cold PBS. After being aliquoted into 96-well plates, the cells were blocked by serum and incubated with different concentrations of specific mAb for 1 hour at 4° C. Subsequently, the cells were washed and incubated with an anti-human κ secondary antibody conjugated with the R-PE fluorophore and analyzed using a FACSCalibur flow cytometer. 10,000 events were collected for each sample without applying any gating. For KD determination, the Geometric Mean of each sample histogram was calculated and plotted as a function of the mAb concentration. KD was calculated after fitting to a two-state equilibrium model.

The target is the same in assay [3]. Description: FACS on HUVEC, geometric mean against mAb concentration, two-state equilibrium model. As to the method:
as §1, with “22B5/DLE antibody was” for “22B5/DLE, 24C7/DLE, 1 D9/DLE, and 2D2/DLE antibodies were”, “its” for “their”

Assay [4] has the same target. Put plainly: FACS on HUVEC (endogenous human α5β1), GeoMean against mAb concentration, fitted; experiment 030207.
For assay [5], the target named is T2, human recombinant α5β1 extracellular domain (human, UniProt P08648 42-995; P05556 21-728).
T2 construct: extracellular domain; also called α5β1 recombinant extracellular domain; extracellular domain of α5β1
Description: Biacore, antibody immobilised, α5β1 extracellular domain flowed, 25.0 C, 4.0 mM CaCl2. As to the method:
(§2) Binding kinetics and nominal avidity of 22B5/DLE to the extracellular domain of α5β1 was determined using Biacore analysis (Biacore AB, Uppsala, Sweden). To perform BIAcore kinetic analyses, the 22B5/DLE antibody was immobilized on a biosensor chip and various concentrations of human recombinant α5β1 extracellular domain were flowed across the surface at 25.0° C. (see FIG. 3). The binding data were fit globally to a simple one-to-one binding model with drifting baseline. 22B5/DLE binds reversibly to α5β1. […] The KD was greater when measured in the absence of divalent cations, consistent with cation-dependent activation of integrin.

Assay [6] addresses T1, human integrin α5β1 on cells …. Put plainly: cell-based or functional assay. This is another data set of the same source.
Assay [7] addresses T2, human recombinant α5β1 extracellular …. Description: Biacore, antibody immobilised, α5β1 extracellular domain flowed, 25.0 C, 4.0 mM MgCl2. As to the method: as §2
On the technique in general: SPR reads the build-up and loss of mass on a sensor chip optically.

T1 sequence (P08648 42-1049, chain 1 of 2): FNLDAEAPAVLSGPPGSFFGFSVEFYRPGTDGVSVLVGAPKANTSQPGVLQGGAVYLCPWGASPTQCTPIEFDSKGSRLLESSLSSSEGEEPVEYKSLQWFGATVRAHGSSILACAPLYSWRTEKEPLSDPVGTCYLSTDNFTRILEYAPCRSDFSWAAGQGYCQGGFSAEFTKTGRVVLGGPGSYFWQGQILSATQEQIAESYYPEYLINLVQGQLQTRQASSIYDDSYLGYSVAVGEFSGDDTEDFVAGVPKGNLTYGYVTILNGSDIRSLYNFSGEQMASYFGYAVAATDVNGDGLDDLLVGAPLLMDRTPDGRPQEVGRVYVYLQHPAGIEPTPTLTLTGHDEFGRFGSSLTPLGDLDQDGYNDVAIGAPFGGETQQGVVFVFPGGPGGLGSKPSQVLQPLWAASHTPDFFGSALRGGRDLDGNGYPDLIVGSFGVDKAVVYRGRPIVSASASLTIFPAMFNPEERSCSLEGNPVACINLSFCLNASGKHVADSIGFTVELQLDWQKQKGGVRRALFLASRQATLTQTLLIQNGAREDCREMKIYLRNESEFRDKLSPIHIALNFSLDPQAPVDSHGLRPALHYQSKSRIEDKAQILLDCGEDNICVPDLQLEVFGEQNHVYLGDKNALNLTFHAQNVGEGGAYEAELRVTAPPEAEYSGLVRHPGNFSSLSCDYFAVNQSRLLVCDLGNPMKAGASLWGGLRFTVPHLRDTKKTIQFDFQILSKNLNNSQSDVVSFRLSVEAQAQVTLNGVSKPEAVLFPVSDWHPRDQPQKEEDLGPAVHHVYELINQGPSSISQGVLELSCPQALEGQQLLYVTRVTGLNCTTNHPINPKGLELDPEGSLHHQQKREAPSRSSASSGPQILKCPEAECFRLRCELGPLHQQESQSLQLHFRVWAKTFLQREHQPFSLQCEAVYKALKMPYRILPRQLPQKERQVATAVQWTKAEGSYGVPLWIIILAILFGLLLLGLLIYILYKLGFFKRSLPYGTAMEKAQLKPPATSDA
T1 sequence (P05556 21-798, chain 2 of 2): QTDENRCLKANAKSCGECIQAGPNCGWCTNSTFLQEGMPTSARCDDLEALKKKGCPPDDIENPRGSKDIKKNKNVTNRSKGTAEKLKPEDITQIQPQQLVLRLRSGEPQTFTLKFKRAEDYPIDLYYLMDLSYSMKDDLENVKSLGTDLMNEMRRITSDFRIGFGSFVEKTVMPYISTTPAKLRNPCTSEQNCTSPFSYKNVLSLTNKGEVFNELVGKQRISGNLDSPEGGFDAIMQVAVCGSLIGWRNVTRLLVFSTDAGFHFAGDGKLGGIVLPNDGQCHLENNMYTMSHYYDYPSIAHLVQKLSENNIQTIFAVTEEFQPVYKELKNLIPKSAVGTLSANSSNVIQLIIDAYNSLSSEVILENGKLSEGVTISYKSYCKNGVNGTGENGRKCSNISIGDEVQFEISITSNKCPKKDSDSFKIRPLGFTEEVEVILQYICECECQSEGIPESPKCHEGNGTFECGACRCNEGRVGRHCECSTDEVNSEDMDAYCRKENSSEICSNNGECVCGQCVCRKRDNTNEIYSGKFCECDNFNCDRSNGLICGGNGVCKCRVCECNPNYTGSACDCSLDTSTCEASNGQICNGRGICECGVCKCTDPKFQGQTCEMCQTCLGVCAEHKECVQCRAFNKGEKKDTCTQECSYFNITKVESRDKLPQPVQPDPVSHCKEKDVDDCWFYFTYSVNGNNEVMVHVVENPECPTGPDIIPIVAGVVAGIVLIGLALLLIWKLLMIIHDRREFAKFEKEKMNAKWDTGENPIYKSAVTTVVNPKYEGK
T2 sequence (P08648 42-995, chain 1 of 2): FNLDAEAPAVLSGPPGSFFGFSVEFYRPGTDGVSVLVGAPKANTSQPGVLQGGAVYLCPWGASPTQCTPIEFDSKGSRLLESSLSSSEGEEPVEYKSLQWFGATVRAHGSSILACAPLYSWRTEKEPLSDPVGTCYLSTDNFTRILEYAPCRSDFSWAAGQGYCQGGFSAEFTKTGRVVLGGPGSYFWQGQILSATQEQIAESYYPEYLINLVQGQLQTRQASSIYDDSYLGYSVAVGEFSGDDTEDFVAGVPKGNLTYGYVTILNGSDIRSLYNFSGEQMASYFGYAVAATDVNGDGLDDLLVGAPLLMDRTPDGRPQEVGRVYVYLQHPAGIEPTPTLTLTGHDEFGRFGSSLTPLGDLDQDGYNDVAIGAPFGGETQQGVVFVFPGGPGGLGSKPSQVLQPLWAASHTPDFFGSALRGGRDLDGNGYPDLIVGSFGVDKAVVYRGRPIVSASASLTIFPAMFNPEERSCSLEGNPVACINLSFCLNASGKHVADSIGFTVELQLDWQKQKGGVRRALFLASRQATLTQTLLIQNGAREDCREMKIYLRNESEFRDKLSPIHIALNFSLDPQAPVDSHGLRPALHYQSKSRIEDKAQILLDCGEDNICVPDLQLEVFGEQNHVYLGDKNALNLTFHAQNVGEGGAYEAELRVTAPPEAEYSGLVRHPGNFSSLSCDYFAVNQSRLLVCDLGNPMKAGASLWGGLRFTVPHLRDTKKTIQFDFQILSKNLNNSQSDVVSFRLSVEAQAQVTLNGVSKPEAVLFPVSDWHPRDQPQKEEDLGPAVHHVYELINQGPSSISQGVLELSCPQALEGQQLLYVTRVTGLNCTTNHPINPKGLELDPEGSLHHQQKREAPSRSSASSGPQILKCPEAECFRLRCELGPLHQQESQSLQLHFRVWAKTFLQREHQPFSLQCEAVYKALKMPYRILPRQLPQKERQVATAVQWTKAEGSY
T2 sequence (P05556 21-728, chain 2 of 2): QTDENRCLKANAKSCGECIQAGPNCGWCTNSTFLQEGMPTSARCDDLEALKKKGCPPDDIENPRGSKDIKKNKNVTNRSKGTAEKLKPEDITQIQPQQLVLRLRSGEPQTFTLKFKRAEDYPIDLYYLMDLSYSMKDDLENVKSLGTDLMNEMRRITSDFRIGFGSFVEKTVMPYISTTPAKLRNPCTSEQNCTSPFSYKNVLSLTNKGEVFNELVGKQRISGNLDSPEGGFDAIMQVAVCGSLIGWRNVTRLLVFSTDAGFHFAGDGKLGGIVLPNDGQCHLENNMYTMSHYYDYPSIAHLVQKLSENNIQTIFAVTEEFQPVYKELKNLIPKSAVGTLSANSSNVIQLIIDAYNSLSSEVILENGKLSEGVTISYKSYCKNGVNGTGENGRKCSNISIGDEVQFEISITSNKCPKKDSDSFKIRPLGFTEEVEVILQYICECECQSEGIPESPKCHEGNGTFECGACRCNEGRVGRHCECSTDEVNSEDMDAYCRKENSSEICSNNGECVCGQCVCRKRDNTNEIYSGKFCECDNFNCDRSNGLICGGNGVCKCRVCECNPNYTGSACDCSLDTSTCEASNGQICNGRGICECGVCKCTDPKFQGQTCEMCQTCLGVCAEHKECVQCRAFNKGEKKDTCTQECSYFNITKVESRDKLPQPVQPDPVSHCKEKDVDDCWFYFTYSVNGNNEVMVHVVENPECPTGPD

B1: 22B5/DLE (antibody, human IgG1, kappa)
heavy: QLQLQESGPGLVKPSETLSLTCTVSGGSISSSSYWGWIRQPPGKGLEWIGSIYYSGRNYNNPSLKSRVTISVDTSKNQFSLKLSSVTAADTAVYYCARHYYGSGSSYYYYDLDVWGQGTTVTVSSASTKGPSVFPLAPSSKSTSGGTAALGCLVKDYFPEPVTVSWNSGALTSGVHTFPAVLQSSGLYSLSSVVTVPSSSLGTQTYICNVNHKPSNTKVDKKVEPKSCDKTHTCPPCPAPELLGGPDVFLFPPKPKDTLMISRTPEVTCVVVDVSHEDPEVKFNWYVDGVEVHNAKTKPREEQYNSTYRVVSVLTVLHQDWLNGKEYKCKVSNKALPLPEEKTISKAKGQPREPQVYTLPPSREEMTKNQVSLTCLVKGFYPSDIAVEWESNGQPENNYKTTPPVLDSDGSFFLYSKLTVDKSRWQQGNVFSCSVMHEALHNHYTQKSLSLSPGK
light: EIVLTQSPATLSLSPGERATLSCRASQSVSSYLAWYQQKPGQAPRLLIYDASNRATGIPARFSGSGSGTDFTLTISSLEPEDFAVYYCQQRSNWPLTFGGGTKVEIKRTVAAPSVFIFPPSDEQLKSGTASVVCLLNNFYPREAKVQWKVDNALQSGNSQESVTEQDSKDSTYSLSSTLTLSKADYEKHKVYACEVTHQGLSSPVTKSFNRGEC
notes: Human IgG1 with Fc mutations S247D, A338L, I340E; the VH already holds the germline back-mutations I30S and N33S; also called 22B5 IgG1 DLE; 22B5 G1 DLE
For the molecule B1, the “IC50, inhibition of HUVEC adhesion to fibronectin (fluorescence 485/535 nM)” value in assay [1] came out at 1.01 nM. Moreover, the Kd (as a rule, a measure of binding affinity in units of concentration) came to 1.99 nM in assay [2]; 2.15 nM in assay [3]; 2.42 nM in assay [4]; 2.7 nM in assay [5]; 4.1 nM in assay [7]. For the same molecule, the results for the off-rate (koff) in assay [5] and in assay [7] were 0.0012 s⁻¹ and 0.0014 s⁻¹, respectively. The results for the on-rate (kon) in assay [5] and in assay [7] were 450000 M⁻¹ s⁻¹ and 340000 M⁻¹ s⁻¹, respectively. The “ADCC EC50 (up to 80% target cell lysis), human PBMCs” value in assay [6] was 0.04 nM.
